The values that follow come from US20130171217A1, “ENZYMATIC PERACID GENERATION FOR USE IN SKIN CARE PRODUCTS” (E I DU PONT DE NEMOURS AND COMPANY, priority 2010, published 2013).

Type in all cases: biochemical
Series [1] is described as follows: One-step enzymatic PAA generation, HPLC peracetic acid assay. Here is the method:
Determination of the peracetic acid (PAA) concentration in the reaction mixtures was performed according to the method described by Pinkernell et al., Anal. Chem. 1997, 69(17):3623-3627. Aliquots (0.040 mL) of the reaction mixture were removed at predetermined times and mixed with 0.960 mL of 5 mM phosphoric acid in water; adjustment of the pH of the diluted sample to less than pH 4 immediately terminated the reaction. The resulting solution was filtered using an ULTRAFREE® MC-filter unit (30,000 Normal Molecular Weight Limit (NMWL), Millipore cat #UFC3LKT 00) by centrifugation for 2 min at 12,000 rpm. An aliquot (0.100 mL) of the resulting filtrate was transferred to 1.5-mL screw cap HPLC vial (Agilent Technologies, Palo Alto, Calif.; #5182-0715) containing 0.300 mL of deionized water, then 0.100 mL of 20 mM MTS (methyl-p-tolyl-sulfide) in acetonitrile was added, the vials capped, and the contents briefly mixed prior to a 10 min incubation at ca. 25° C. in the absence of light. To each vial was then added 0.400 mL of acetonitrile and 0.100 mL of a solution of triphenylphosphine (TPP, 40 mM) in acetonitrile, the vials re-capped, and the resulting solution mixed and incubated at ca. 25° C. for 30 min in the absence of light. To each vial was then added 0.100 mL of 10 mM N,N-diethyl-m-toluamide (DEET; HPLC external standard) and the resulting solution analyzed by HPLC (Waters Alliance 2695, Waters Corporation; MA).
Supelco Discovery C8 column (10 cm×4.0-mm, 5 μm) (cat. #569422-U) w/precolumn Supelco Supelguard Discovery C8 (Sigma-Aldrich; cat #59590-U); 10 microliter injection volume; gradient method with CH3CN (Sigma-Aldrich; #270717) and deionized water at 1.0 mL/min and ambient temperature:
The first method (referred to herein as the “one-step approach”) comprises combining different amounts of at least one CE-7 perhydrolase with triacetin (an example of a suitable ester substrate) and hydrogen peroxide to generate peracetic acid. Hair bundles were inserted into “one step approach” solutions for 15 min immediately after mixing the enzyme solution with triacetin solution (final concentration was about 100 mM) and H2O2 solution (final concentration was about 250 mM). The hair samples were rinsed with water and dried. The method was repeated for another 15 times (total application was 16 times). In one experiment, two perhydrolase enzymes were used, i.e., untargeted T. maritima variant C277S (“C277S”; “PAH”; SEQ ID NO: 293) and “C277S-HC263” (SEQ ID NO: 288). The concentration of peracetic acid in solution after 15 min was evaluated by HPLC.

The nature of series [2]: Perhydrolase activity of targeted hydrolases, ABTS assay. The method, then:
The ABTS assay was performed as follows: hair samples treated as described above were transferred to new 2-mL microcentrifuge tubes (Eppendorf Protein LoBind; Eppendorf North America, Hauppauge, N.Y.) To each tube was added 480 μL of PAH buffer ([…]), 14 μL of 39% hydrogen peroxide (Sigma 3410), and 6 μL triacetin (Sigma-Aldrich W200700). The perhydrolase reaction was allowed to proceed for 10 minutes at room temperature (˜22-25° C.). The reaction was stopped by diluting aliquots 10×, 100× and 1000× with 10 mM phosphoric acid. For detection 50 μL of 1 M acetic acid, 50 μL of 40 mg/mL potassium iodide, and 50 μL of 4 mM ABTS (2,2′-azino-bis(3-ethylbenzthiazoline-6-sulphonic acid; Sigma, St Louis, Mo.) were added to 50 μL of the above dilutions. Color was allowed to develop for 10 minutes and read in a spectrophotometer at 405 nm. Values from no-enzyme controls were subtracted to yield values attributable only to enzyme activity. A standard curve of OD 405 nm vs PAA concentration in ppm yielded a conversion factor of 8.75, such that an OD 405 nm of 1.0 corresponded to approximately 8.75 ppm PAA. This value was then multiplied by the appropriate dilution to arrive at the PAA concentration in the perhydrolase reaction.
The perhydrolase activity of the enzymes targeted to hair with a variety of targeting domains produced as described in Example 32 was measured with the ABTS assay.

Series [3] can be described thus: PAA generation with different perhydrolases and substrates, HPLC Karst assay. The method, then: HC1121 is a CE-7 class carbohydrate esterase from Thermotoga maritima (C2775-HC263; SEQ ID NO: 288), and HC1169 is an aryl esterase from M. smegmatis (ArE-HC263; SEQ ID NO: 323). Both enzymes were tested for their perhydrolytic activity with substrates triacetin or propylene glycol diacetate (PGDA, Aldrich 528072) and hydrogen peroxide between pH 5 and pH 7.2. Enzyme free reactions for some reaction conditions were run to determine the non-enzymatic generation of peracetic acid as well. At the end of reaction, the reaction was quenched by acidification 10 or 25 fold with 100 mM H3PO4. The quenched samples were filtered using a NANOSEP® MF centrifugal device (30K Molecular Weight Cutoff (MWCO), Pall Life Sciences, Ann Arbor, Mich., P/N OD030C35) by centrifugation for 6 min at 12,000 rpm. The filtrates were assayed by HPLC Karst assay in duplicates to determine the amount of peracetic acid (PAA) generated at those reaction conditions.

The mark [4] stands for this setting: 10 μg/mL enzyme, 250 mM triacetin, 100 mM H2O2, 20% LUBRIDERM® in pH 7.2, 100 mM phosphate buffer, 60 min.

B1: C277S-HC263: C277S variant of Thermotoga maritima perhydrolase fused via a flexible linker to hair-binding domain HC263 (protein)
chain: MAFFDLPLEELKKYRPERYEEKDFDEFWEETLAESEKFPLDPVFERMESHLKTVEAYDVTFSGYRGQRIKGWLLVPKLEEEKLPCVVQYIGYNGGRGFPHDWLFWPSMGYICFVMDTRGQGSGWLKGDTPDYPEGPVDPQYPGFMTRGILDPRTYYYRRVFTDAVRAVEAAASFPQVDQERIVIAGGSQGGGIALAVSALSKKAKALLCDVPFLCHFRRAVQLVDTHPYAEITNFLKTHRDKEEIVFRTLSYFDGVNFAARAKIPALFSVGLMDNISPPSTVFAAYNYYAGPKEIRIYPYNNHEGGGSFQAVEQVKFLKKLFEKGGPGSGGAGSPGSAGGPGSPSAQSQLPDKHSGLHERAPQRYGPEPEPEPEPIPEPPKEAPVVIEKPKPKPKPKPKPPAHDHKNQKETHQRHAAGSGGGGSPHHHHHH
Turning to B1, in series [1] (0.05 mg/mL enzyme), the PAA generated entry is given as “about 0.2 wt %”. Besides, the “PAA” value in series [1] (0.05 mg/mL enzyme, urea 0 wt %, after 15 min) came to 1983 ppm; in series [1] (0.25 mg/mL enzyme, urea 0 wt %, after 15 min), 3948 ppm; in series [1] (0.5 mg/mL enzyme, urea 0 wt %, ~100 mM triacetin, ~250 mM H2O2, after 15 min), 4132 ppm; in series [3] (setting [4]) it was 4451 ppm; in series [3] (50 μg/mL enzyme, 100 mM triacetin, 250 mM H2O2, pH 5, 50 mM citrate buffer, 5 min), 277 ppm; in series [3] (50 μg/mL enzyme, 100 mM triacetin, 250 mM H2O2, pH 5.6, 50 mM citrate buffer, 5 min), 1222 ppm. The PAA worked out at 2350 ppm in series [3] (50 μg/mL enzyme, 100 mM triacetin, 250 mM H2O2, pH 6, 50 mM citrate buffer, 5 min); 4067 ppm in series [3] (50 μg/mL enzyme, 100 mM triacetin, 250 mM H2O2, pH 6.6, 50 mM citrate-phosphate buffer, 5 min); 4832 ppm in series [3] (50 μg/mL enzyme, 100 mM triacetin, 250 mM H2O2, pH 7, 50 mM pyrophosphate buffer, 5 min). Besides, the “perhydrolase activity lower than C277S” value in series [1] (same weight basis, under testing condition) was 2-3 times. Further, the Specific perhydrolase activity entry in series [2] (1 m Na acetate at pH 5.5 instead of triacetin) is “The perhydrolase activity of the fusions of the Pseudomonas fluorescens hydrolase was assayed using 1 m Na acetate at pH 5.5 instead of triacetin at pH 7.5 Targeted Perhydrolases HC1121 (C277S-HC263; SEQ ID NO: 288) had no detectable perhydrolase activity with acetate as a substrate”.

B2: C277S: non-targeted C277S variant of the Thermotoga maritima perhydrolase, un-targeted control (protein, listed as Thermotoga maritima)
chain: MAFFDLPLEELKKYRPERYEEKDFDEFWEETLAESEKFPLDPVFERMESHLKTVEAYDVTFSGYRGQRIKGWLLVPKLEEEKLPCVVQYIGYNGGRGFPHDWLFWPSMGYICFVMDTRGQGSGWLKGDTPDYPEGPVDPQYPGFMTRGILDPRTYYYRRVFTDAVRAVEAAASFPQVDQERIVIAGGSQGGGIALAVSALSKKAKALLCDVPFLCHFRRAVQLVDTHPYAEITNFLKTHRDKEEIVFRTLSYFDGVNFAARAKIPALFSVGLMDNISPPSTVFAAYNYYAGPKEIRIYPYNNHEGGGSFQAVEQVKFLKKLFEKG
Turning to B2, the “PAA” value in series [1] (0.05 mg/mL enzyme, urea 10 wt %, after 15 min) is listed as 6448 ppm; in series [1] (0.25 mg/mL enzyme, urea 10 wt %, after 15 min), 14053 ppm; in series [1] (0.5 mg/mL enzyme, urea 10 wt %, after 15 min), 13656 ppm.

B3: SEQ ID NO: 323: S54V variant of the aryl esterase from Mycobacterium smegmatis fused to hair binding domain HC263 via a flexible linker (protein)
chain: MAKRILCFGDSLTWGWVPVEDGAPTERFAPDVRWTGVLAQQLGADFEVIEEGLVARTTNIDDPTDPRLNGASYLPSCLATHLPLDLVIIMLGTNDTKAYFRRTPLDIALGMSVLVTQVLTSAGGVGTTYPAPKVLVVSPPPLAPMPHPWFQLIFEGGEQKTTELARVYSALASFMKVPFFDAGSVISTDGVDGIHFTEANNRDLGVALAEQVRSLLGPGSGGAGSPGSAGGPGSPSAQSQLPDKHSGLHERAPQRYGPEPEPEPEPIPEPPKEAPVVIEKPKPKPKPKPKPPAHDHKNQKETHQRHAAGSGGGGSPHHHHHH
Molecule B3 showed a Specific perhydrolase activity in series [2] (triacetin at pH 7.5) of 270 µmol/mg/min. Besides, the PAA was determined as 4158 ppm in series [3] (10 μg/mL enzyme, 250 mM PGDA, 100 mM H2O2, pH 5, 100 mM citrate buffer, 30 min); 4482 ppm in series [3] (10 μg/mL enzyme, 250 mM PGDA, 100 mM H2O2, pH 5.6, 100 mM citrate buffer, 30 min); 4647 ppm in series [3] (10 μg/mL enzyme, 250 mM PGDA, 100 mM H2O2, pH 6, 100 mM citrate buffer, 30 min); 4608 ppm in series [3] (10 μg/mL enzyme, 250 mM PGDA, 100 mM H2O2, pH 6.6, 100 mM phosphate buffer, 30 min); 4450 ppm in series [3] (10 μg/mL enzyme, 250 mM PGDA, 100 mM H2O2, pH 7.2, 100 mM phosphate buffer, 30 min); 3433 ppm in series [3] (setting [4]). Also, the PAA in series [3] (20 μg/mL enzyme, 250 mM PGDA, 100 mM H2O2, pH 5, 100 mM citrate buffer, 30 min) came out at 4140 ppm; in series [3] (20 μg/mL enzyme, 250 mM PGDA, 100 mM H2O2, pH 5.6, 100 mM citrate buffer, 30 min), 4403 ppm; in series [3] (20 μg/mL enzyme, 250 mM PGDA, 100 mM H2O2, pH 6, 100 mM citrate buffer, 30 min), 4609 ppm; in series [3] (20 μg/mL enzyme, 250 mM PGDA, 100 mM H2O2, pH 6.6, 100 mM phosphate buffer, 30 min) it was 4526 ppm; in series [3] (20 μg/mL enzyme, 250 mM PGDA, 100 mM H2O2, pH 7.2, 100 mM phosphate buffer, 30 min), 4726 ppm; in series [3] (20 μg/mL enzyme, 250 mM triacetin, 100 mM H2O2, pH 5, 100 mM citrate buffer, 30 min) it was 3680 ppm. The PAA is reported as 4429 ppm in series [3] (20 μg/mL enzyme, 250 mM triacetin, 100 mM H2O2, pH 5.6, 100 mM citrate buffer, 30 min); 4616 ppm in series [3] (20 μg/mL enzyme, 250 mM triacetin, 100 mM H2O2, pH 6, 100 mM citrate buffer, 30 min); 4488 ppm in series [3] (20 μg/mL enzyme, 250 mM triacetin, 100 mM H2O2, pH 6.6, 100 mM phosphate buffer, 30 min); 4812 ppm in series [3] (20 μg/mL enzyme, 250 mM triacetin, 100 mM H2O2, pH 7.2, 100 mM phosphate buffer, 30 min).
